The supplement of paper PMC7877785
± gives the uncertainty stated by the source.

Test: self-splicing fitness, log relative to wild type (ln ratio); higher = more splicing; Tetrahymena group I intron in knt gene, E. coli kanamycin selection, DiMSum; sequences stand for … in CUCUCU…GGAGGGAAAAGUUAUCAGGCAUGCACCUGGUAGCUAGUCUUUAAACCAAUAGAUUGCAUCGGUUUAAAAGGCAAGACCGUCAAAUUGCGGGAAAGGGGUCAACAGCCGUUCAGUACCAAGUCUCAGGGGAAACUUUGAGAUGGCCUUGCAAAGGGUAUGGUAAUAAGCUGACGGACAUGGUCCUAACCACGCAGCCAAGUCCUAAGUCAACAGAUCUUCUGUUGAUAUGGAUGCAGUUCACAGACUAAAUGUCGGUCGGGGAAGAUGUAUUCUUCUCAUAAGAUAUAGUCGGACCUCUCCUUAAUGGGAGCUAGCGGAUGAAGUGAUGCAACACUGGAGCCGCUGGGAACUAAUUUGUAUGCGAAAGUAUAUUGAUUAGUUUUGGAGUACUCGUGGUCG
How it was run: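 Fitness was computed with DiMSum as the error-weighted combination of replicate fold changes, kanamycin versus none, each normalised to wild type. The library randomised all eight intron nucleotides of the P1ex region, with the intron placed in the knt kanamycin-resistance gene on pET-22b(+) in E. coli BL21(DE3). Six replicate transformations were grown overnight at 37°C or 30°C on LB agar with or without 25 μg/mL kanamycin, plus 100 μg/mL carbenicillin, 50 μM IPTG and 0.2% rhamnose. Pooled colonies were amplicon-sequenced on an Illumina HiSeq 2500.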

| Sequence | self-splicing fitness (ln) (37 °C) | self-splicing fitness (ln) (30 °C) |
| --- | --- | --- |
| CUGAAGCAAUAUUACGUAAC | -1.22 ± 0.24 | – |
| CGGAAGCAAUAUUACGCCAU | -2.84 ± 0.32 | -3.61 ± 0.34 |
| AGUGAGCAAUAUUACGGUUC | -1.7 ± 0.38 | -2.21 ± 0.26 |
| UGGAAGCAAUAUUACGUAGC | -0.661 ± 0.24 | -2.29 ± 0.21 |
| CCCGAGCAAUAUUACGGCCA | -3.57 ± 0.28 | -2.88 ± 0.23 |
| GUGUAGCAAUAUUACGAGCC | -2.28 ± 0.31 | -2.65 ± 0.38 |
| AUGGAGCAAUAUUACGGUGC | – | -2.99 ± 0.25 |
| ACAGAGCAAUAUUACGCAAG | -2.33 ± 0.25 | -3.99 ± 0.39 |
| AGAAAGCAAUAUUACGACGU | 0.35 ± 0.1 | 0.0909 ± 0.1 |
| UACCAGCAAUAUUACGUCGG | -1.91 ± 0.14 | -2.64 ± 0.12 |
| GAUUAGCAAUAUUACGUGGA | -0.488 ± 0.13 | -3.92 ± 0.3 |
| CCAAAGCAAUAUUACGUGUA | -1.97 ± 0.12 | -3.72 ± 0.14 |
| GUGGAGCAAUAUUACGGCGG | -1.54 ± 0.27 | -3.32 ± 0.29 |
| GGUAAGCAAUAUUACGACUU | 0.0617 ± 0.18 | -0.311 ± 0.15 |
| CCACAGCAAUAUUACGACUC | -2.76 ± 0.3 | -2.46 ± 0.18 |
| UGAUAGCAAUAUUACGUGAC | -1.82 ± 0.29 | -3.54 ± 0.29 |
| CGCAAGCAAUAUUACGAUGG | -0.239 ± 0.095 | -0.351 ± 0.081 |
| CCAGAGCAAUAUUACGGGUA | -2.3 ± 0.3 | -2.35 ± 0.29 |
| GCAGAGCAAUAUUACGUCCG | -2.51 ± 0.17 | -2.57 ± 0.14 |
| ACUAAGCAAUAUUACGGUUU | -0.745 ± 0.096 | -2.05 ± 0.091 |

| Sequence | self-splicing fitness (ln) (37 °C) | self-splicing fitness (ln) (30 °C) |
| --- | --- | --- |
| AGCAAGCAAUAUUACGACCA | -0.178 ± 0.12 | -0.697 ± 0.09 |
| GAGUAGCAAUAUUACGUCUU | -1.49 ± 0.17 | -1.94 ± 0.16 |
| GGACAGCAAUAUUACGCGGA | 0.416 ± 0.074 | -0.693 ± 0.081 |
| CUCGAGCAAUAUUACGGGGA | -1.17 ± 0.18 | -2.71 ± 0.2 |
| CCUGAGCAAUAUUACGUCUG | -1.4 ± 0.13 | -2.44 ± 0.14 |
| CGUUAGCAAUAUUACGGUUC | -1.83 ± 0.31 | -3.01 ± 0.38 |
| AGUCAGCAAUAUUACGGUGU | -0.39 ± 0.1 | -1.32 ± 0.075 |
| UGUUAGCAAUAUUACGACAC | -2.08 ± 0.43 | -3.43 ± 0.47 |
| UAUAAGCAAUAUUACGAUGC | -2.63 ± 0.27 | -3.29 ± 0.36 |
| UUUUAGCAAUAUUACGUCGU | -2.81 ± 0.17 | -3.49 ± 0.15 |
| GCUCAGCAAUAUUACGCCUG | -2.42 ± 0.32 | -2.66 ± 0.26 |
| CACCAGCAAUAUUACGUUAA | -2.37 ± 0.11 | -3.35 ± 0.095 |
| AUAGAGCAAUAUUACGGGUC | -2.58 ± 0.24 | -3.75 ± 0.36 |
| UGUCAGCAAUAUUACGGCAU | -2.48 ± 0.23 | -3.01 ± 0.15 |
| CUUGAGCAAUAUUACGAGCG | -0.889 ± 0.09 | -2.14 ± 0.1 |
| CUAGAGCAAUAUUACGACUU | -2.51 ± 0.25 | -4.26 ± 0.27 |
| UUGGAGCAAUAUUACGUACA | 0.204 ± 0.28 | – |
| CGUAAGCAAUAUUACGGUUA | -1.72 ± 0.14 | -2.29 ± 0.12 |
| GACGAGCAAUAUUACGAUUG | -1.09 ± 0.13 | -4.17 ± 0.27 |
